T1: human fibrinogen (human, UniProt P02671 20-629; P02675 31-491; P02679 27-437)
T1 construct: also called 125I-labelled fibrinogen; immobilized fibrinogen
T1 sequence 1: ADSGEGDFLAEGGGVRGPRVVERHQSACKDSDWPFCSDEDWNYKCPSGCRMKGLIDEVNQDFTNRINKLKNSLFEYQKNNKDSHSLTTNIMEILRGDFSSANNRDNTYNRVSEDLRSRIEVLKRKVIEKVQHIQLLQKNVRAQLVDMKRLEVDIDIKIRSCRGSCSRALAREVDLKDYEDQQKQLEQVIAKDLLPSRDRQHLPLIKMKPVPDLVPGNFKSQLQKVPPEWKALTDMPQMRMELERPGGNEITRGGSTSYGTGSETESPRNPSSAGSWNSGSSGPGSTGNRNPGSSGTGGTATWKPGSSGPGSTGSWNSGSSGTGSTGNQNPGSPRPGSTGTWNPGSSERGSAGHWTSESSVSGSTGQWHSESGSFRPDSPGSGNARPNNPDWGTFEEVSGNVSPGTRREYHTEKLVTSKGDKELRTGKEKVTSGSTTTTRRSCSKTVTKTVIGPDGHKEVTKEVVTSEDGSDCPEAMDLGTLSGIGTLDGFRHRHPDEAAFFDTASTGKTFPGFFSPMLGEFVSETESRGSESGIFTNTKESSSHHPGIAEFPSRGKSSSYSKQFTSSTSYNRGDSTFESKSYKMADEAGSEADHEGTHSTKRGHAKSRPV
T1 sequence 2: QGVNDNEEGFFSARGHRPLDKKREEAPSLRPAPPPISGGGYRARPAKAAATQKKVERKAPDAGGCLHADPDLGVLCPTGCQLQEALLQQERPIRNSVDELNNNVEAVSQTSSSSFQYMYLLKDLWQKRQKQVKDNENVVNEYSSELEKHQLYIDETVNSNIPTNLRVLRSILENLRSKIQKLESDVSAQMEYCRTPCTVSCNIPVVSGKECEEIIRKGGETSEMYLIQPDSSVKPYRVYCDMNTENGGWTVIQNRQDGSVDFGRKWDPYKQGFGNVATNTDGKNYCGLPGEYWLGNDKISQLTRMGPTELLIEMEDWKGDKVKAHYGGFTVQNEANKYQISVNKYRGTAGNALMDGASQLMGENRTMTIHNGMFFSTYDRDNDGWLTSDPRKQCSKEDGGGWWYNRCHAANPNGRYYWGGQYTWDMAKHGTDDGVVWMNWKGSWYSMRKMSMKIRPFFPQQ
T1 sequence 3: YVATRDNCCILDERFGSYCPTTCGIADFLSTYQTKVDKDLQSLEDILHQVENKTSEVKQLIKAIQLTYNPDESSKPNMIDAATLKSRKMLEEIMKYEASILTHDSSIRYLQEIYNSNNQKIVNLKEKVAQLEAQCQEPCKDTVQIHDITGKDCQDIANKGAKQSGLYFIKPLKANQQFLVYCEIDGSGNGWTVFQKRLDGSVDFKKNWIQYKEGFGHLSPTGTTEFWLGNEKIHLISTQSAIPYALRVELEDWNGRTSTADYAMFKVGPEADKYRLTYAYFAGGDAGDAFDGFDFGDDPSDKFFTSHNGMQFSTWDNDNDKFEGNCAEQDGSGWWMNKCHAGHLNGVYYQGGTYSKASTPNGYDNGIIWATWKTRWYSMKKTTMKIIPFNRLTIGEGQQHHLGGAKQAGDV

B1: scrambled peptide GLSQNRDVRENQRARE (peptide)
peptide: GLSQNRDVRENQRARE
notes: Same amino acids as the repeat unit in a different order; spotted on cellulose; also called randomised peptide
B2: alanine mutant peptide GAVLERRQRDAENRSQ (peptide)
peptide: GAVLERRQRDAENRSQ
notes: also called peptide <2>; N2A
B3: alanine mutant peptide GNVLERAQRDAENRSQ (peptide)
peptide: GNVLERAQRDAENRSQ
notes: also called peptide <5>; R7A
B4: alanine mutant peptide GNALERRQRDAENRSQ (peptide)
peptide: GNALERRQRDAENRSQ
notes: also called peptide <3>; V3A

How the values were obtained:
human fibrinogen (human) [1] = target: human fibrinogen (human) (UniProt P02671); assay: FITC-labelled bacteria on immobilized fibrinogen; less than 2% of the fbsA mutants bound (FIG. 23)
human fibrinogen (human) [2] = target: human fibrinogen (human) (UniProt P02671); assay: FITC-labelled bacteria on fibrinogen-coated Terasaki plates; less than 2% of the fbsA mutant bound
human fibrinogen (human) [3] = target: human fibrinogen (human) (UniProt P02671); assay: 125I-fibrinogen bound to whole bacteria; fbsA deletion mutant bound less than 2%
human fibrinogen (human) [4] = target: human fibrinogen (human) (UniProt P02671); assay: radiolabelled soluble human fibrinogen bound to whole GBS 6313 cells; the filing later attributes the binding to FbsA
human fibrinogen [5] = target: T1, human fibrinogen; assay: dot blot / SPOT membrane overlaid with human fibrinogen (FIG. 11)
human fibrinogen [6] = target: T1, human fibrinogen; assay: refers to the SPOT membrane analysis of FIG. 11

Molecule	percent of total bacteria bound to immobilized fibrinogen (human fibrinogen (human) [1])	percent of total bacteria bound to immobilized fibrinogen (human fibrinogen (human) [2])	percent binding of 125I-labelled soluble fibrinogen (human fibrinogen (human) [3])	binding result (human fibrinogen [6])	further results
FbsA protein of GBS strain 0176 H4A (native) (receptor)	4%				
FbsA protein of GBS strain 706 S2 (native) (receptor)	14%	15%	8%		
FbsA protein of GBS strain 6313 (native) (receptor)	45%	45%	50%		percent of total radiolabelled fibrinogen bound (human fibrinogen (human) [4]): 50%
FbsA protein of GBS strain O90R (native) (receptor)	18%	24%	12%		
FbsA protein of GBS strain SS1169 (native) (receptor)	7%				
B1					binding result (human fibrinogen [5]): no binding (tested: 2 µg/ml of human fibrinogen)
B2				no binding	
B3				no binding	
B4				no binding	

Reference: patent US20060115479A1 (INTERCELL, published 2006)
